Laboratory results taken from patent US20240117030A1 (Pfizer, published 2024).
Where a chain is given by its changes, count along the chain named.

B1: IL33-0721 (antibody, IgG1, V domains shown)
VH: EVQLVESGGGLVQPGGSLRLSCAASGFEFSHYWMYWVRQAPGKGLEWVAAITPNAGEDYYPESVKGRFTISRDNAKNSLYLQMNSLRAEDTAVYYCARGYYRYTKYSLGYWGQGTLVTVSS
VL: DIQMTQSPSSLSASVGDRVTITCRASQPIHQFLDWYQQKPGKAPKLLIYFGHILQEGVPSRFSGSGSGTDFTLTISSLQPEDFATYYCFQYKQGWSFGGGTKVEIK
B2: IL413TSLP-0002 (trispecific antibody, human IgG1, kappa, lambda)
heavy: EVQLVESGGGLVQPGGSLRLSCAASGFTFSSYAMSWVRQAPGKGLEWVASISSGDTTYYPDSVKGRFTISRDNAKNSLYLQMNSLRAEDTAVYYCARNEGYYFGLTLWGQGTLVTVSSASTKGPSVFPKAPSSKSTSGGTAALGCLVKDYFPEPVTVSWNSGALTSGVHTFPAVLQSSGLYSLSSSVTVPSSSLGTQTYICNVNHKPSNTKVDKKVEPKSCDKTHTCPPCPAPEAAGAPSVFLFPPKPKDTLMISRTPEVTCVVVDVSHEDPEVKFNWYVDGVEVHNAKTKPREEQYNSTYRVVSVLTVLHQDWLNGKEYKCKVSNKALPAPIEKTISKAKGQPREPQVCTLPPSREEMTKNQVSLWCLVKGFYPSDIAVEWESNGQPENNYKTTPPVLDSDGSFFLYSKLTVDKSRWQQGNVFSCSVMHEALHNHYTQKSLSLSPGK
chain 1: QMQLVESGGGVVQPGRSLRLSCAASGFTFRTYGMHWVRQAPGKGLEWVAVIWYDGSNKHYADSVKGRFTITRDNSKNTLNLQMNSLRAEDTAVYYCARAPQWELVHEAFDIWGQGTMVTVSSGQPKAAPSVTLFPPSSEELQANKATLVCLISDFYPGAVTVAWKADSSPVKAGVETTTPSKQSNNKYAASSYLSLTPEQWKSHRSYSCQVTHEGSTVEKTVAPTECSGGGGSEVTLRESGPALVKPTQTLTLTCTFSGFSLSNFGEGLSWIRQPPGKGLEWLAHIYWDDDKRYNPSLKSRLTISKDTSRNQVVLTMTNMDPVDTATYYCARRETVFYWYFDVWGQGTTVTVSSASTKGPSVFPEAPSSKSTSGGTAALGCLVKDYFPEPVTVSWNSGALTSGVHTFPAVLQSSGLYSLGSVVTVPSSSLGTQTYICNVNHKPSNTKVDKKVEPKSCDKTHTCPPCPAPEAAGAPSVFLFPPKPKDTLMISRTPEVTCVVVDVSHEDPEVKFNWYVDGVEVHNAKTKPREEQYNSTYRVVSVLTVLHQDWLNGKEYKCKVSNKALPAPIEKTISKAKGQPREPQVYTLPPCREEMTKNQVSLSCAVKGFYPSDIAVEWESNGQPENNYKTTPPVLDSDGSFFLVSKLTVDKSRWQQGNVFSCSVMHEALHNHYTQKSLSLSPGK
light 1: DIQMTQSPSSLSASVGDRVTITCKASESVDHFGWSLVHWYQQKPGKAPKLLIYRASNLESGVPSRFSGSGSGTDFTLTISSLQPEDFATYYCQQSNEDPWTFGGGTKVEIKRTVAAPSVFIFPPSDEQLKSGTASVSCLLNNFYPREAKVQWKVDNALQSGNSQESVTEQDSKDSTYSLDSTLTLSKADYEKHKVYACEVTHQGLSSPVTKSFNRGEC
light 2: B2 light 1 with E27Q, H31E, F32D, W34D, L36Y, V37M, H38N, R54A, W100P, D180K
chain 2: SYVLTQPPSVSVAPGQTARITCGGNNLGSKSVHWYQQKPGQAPVLVVYDDSDRPSWIPERFSGSNSGNTATLTISRGEAGDEADYYCQVWDSSSDHVVFGGGTKLTVLASTKGPSVFPLAPSSKSTSGGTAALGCLVKDYFPEPVTVSWNSGALTSGVHTFPAVLQSSGLYSLSSVVTVPSSSLGTQTYICNVNHKPSNTKVDKKVEPKSC
B3: IL413TSLP-0007 (trispecific antibody, human IgG1, kappa, lambda)
heavy: EVTLRESGPALVKPTQTLTLTCTFSGFSLSNFGEGLSWIRQPPGKGLEWLAHIYWDDDKRYNPSLKSRLTISKDTSRNQVVLTMTNMDPVDTATYYCARRETVFYWYFDVWGQGTTVTVSSASTKGPSVFPEAPSSKSTSGGTAALGCLVKDYFPEPVTVSWNSGALTSGVHTFPAVLQSSGLYSLGSVVTVPSSSLGTQTYICNVNHKPSNTKVDKKVEPKSCDKTHTCPPCPAPEAAGAPSVFLFPPKPKDTLMISRTPEVTCVVVDVSHEDPEVKFNWYVDGVEVHNAKTKPREEQYNSTYRVVSVLTVLHQDWLNGKEYKCKVSNKALPAPIEKTISKAKGQPREPQVYTLPPCREEMTKNQVSLSCAVKGFYPSDIAVEWESNGQPENNYKTTPPVLDSDGSFFLVSKLTVDKSRWQQGNVFSCSVMHEALHNHYTQKSLSLSPGK
chain 1: SYVLTQPPSVSVAPGQTARITCGGNNLGSKSVHWYQQKPGQAPVLVVYDDSDRPSWIPERFSGSNSGNTATLTISRGEAGDEADYYCQVWDSSSDHVVFGGGTKLTVLASTKGPSVFPLAPSSKSTSGGTAALGCLVKDYFPEPVTVSWNSGALTSGVHTFPAVLQSSGLYSLSSVVTVPSSSLGTQTYICNVNHKPSNTKVDKKVEPKSCGGGGSEVQLVESGGGLVQPGGSLRLSCAASGFTFSSYAMSWVRQAPGKGLEWVASISSGDTTYYPDSVKGRFTISRDNAKNSLYLQMNSLRAEDTAVYYCARNEGYYFGLTLWGQGTLVTVSSASTKGPSVFPKAPSSKSTSGGTAALGCLVKDYFPEPVTVSWNSGALTSGVHTFPAVLQSSGLYSLSSSVTVPSSSLGTQTYICNVNHKPSNTKVDKKVEPKSCDKTHTCPPCPAPEAAGAPSVFLFPPKPKDTLMISRTPEVTCVVVDVSHEDPEVKFNWYVDGVEVHNAKTKPREEQYNSTYRVVSVLTVLHQDWLNGKEYKCKVSNKALPAPIEKTISKAKGQPREPQVCTLPPSREEMTKNQVSLWCLVKGFYPSDIAVEWESNGQPENNYKTTPPVLDSDGSFFLYSKLTVDKSRWQQGNVFSCSVMHEALHNHYTQKSLSLSPGK
light 1: B2 light 1 with E27Q, H31E, F32D, W34D, L36Y, V37M, H38N, R54A, W100P, D180K
light 2: B2 light 1
chain 2: QMQLVESGGGVVQPGRSLRLSCAASGFTFRTYGMHWVRQAPGKGLEWVAVIWYDGSNKHYADSVKGRFTITRDNSKNTLNLQMNSLRAEDTAVYYCARAPQWELVHEAFDIWGQGTMVTVSSGQPKAAPSVTLFPPSSEELQANKATLVCLISDFYPGAVTVAWKADSSPVKAGVETTTPSKQSNNKYAASSYLSLTPEQWKSHRSYSCQVTHEGSTVEKTVAPTECS
B4: IL13-0259 (antibody, IgG1, V domains shown)
VH: EVQLVESGGGLVQPGGSLRLSCAASGFTFSSYAMSWVRQAPGKGLEWVASISTGDTTYYPDSVKGRFTISRDNAKNSLYLQMNSLRAEDTAVYYCARNEGYYFGLTQWGRGTLVTVSS
VL: DIQMTQSPSSLSASVGDRVTITCRASQSVDHFGWSLVHWYQQKPGKAPKLLIYRASNLESGVPSRFSGSGSGTDFTLTISSLQPEDFATYYCQQSNEDPWTFGGGTKVEIK
notes: IgG1 effector-null/kappa IgG
B5: IL13-0271 (antibody, IgG1, V domains shown)
VH: B4 VH
VL: B4 VL with Q27E, S56D, N57S, S60T
notes: IgG1 effector-null/kappa IgG; also called IL13433-0271
B6: IL13-0270 (antibody, V domains shown)
VH: B4 VH with Q107L, R110Q
VL: B4 VL with Q27E, S56D, N57S, S60T
notes: IgG1 effector-null/kappa IgG; also called IL13433-0270

Columns and labels:
[1] = molecular target: T1, recombinant human IL-33 (R&D Systems 3625-IL), reduced with DTT (human, UniProt O95760 112-270, limits assumed); assay: cell-based or functional assay
T1 sequence (looked up): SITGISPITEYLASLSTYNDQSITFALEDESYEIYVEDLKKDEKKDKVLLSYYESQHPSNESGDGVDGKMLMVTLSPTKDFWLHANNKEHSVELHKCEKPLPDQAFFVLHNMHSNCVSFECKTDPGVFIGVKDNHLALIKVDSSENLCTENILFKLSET

human TSLP (long form) = molecular target: T2, human TSLP (long form) (human, UniProt Q969D9 29-159, Biotinylated on the Avi tag in some assays; glycosylated (Expi293F expression)); assay: bridging sandwich ELISA: human TSLP coated, Tri-Fab-Fc titrated, IL-13-FLAG added, detected with HRP anti-FLAG (OD450nm)
T2 construct: biotinylated in some assays; also called lfhTSLP; hTSLP

human IL-13 [2] = molecular target: T3, human IL-13 (human, UniProt P35225 35-146); assay: cell-based or functional assay
human IL-13 [3] = molecular target: T3, human IL-13; assay: SPR 37°C, antibody captured by anti-human IgG, human IL-13 1.56-50 nM

T3 sequence (P35225 35-146 limits assumed, form in doubt): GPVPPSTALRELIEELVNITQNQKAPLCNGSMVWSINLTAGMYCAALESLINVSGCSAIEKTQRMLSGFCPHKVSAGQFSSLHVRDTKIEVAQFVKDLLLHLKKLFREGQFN

Binder	IC50 [nM] versus reduced human IL-33 (R&D), IC50 (AVE) [1]	EC50 (read off the curve) (human TSLP (long form))	CD23: Fold versus IL13-0001 (human IL-13 [2])	CD23 IC50 [pM] Ave. n = 2 (human IL-13 [2])	Kd (human IL-13 [3])
B1	0.026 nM	–	–	–	–
B2	–	~0.5 nM	–	–	–
B3	–	~0.6 nM	–	–	–
B4	–	–	0.81 fold	7.4 pM	0.0717 nM
B5	–	–	1.01 fold	5.9 pM	0.0736 nM
B6	–	–	0.67 fold	9 pM	0.0932 nM
